Experimental data taken from patent US20160039904A1 (UNITED STATES OF AMERICA AS REPRESENTED BY THE SECRETARY …, published 2016).

Legend:
HIV-1 gp140MS = HIV-1 gp140MS (HIV-1)
HIV-1 gp140Con-s = HIV-1 gp140Con-s (HIV-1)
HIV-1 gp140CH12.0544.2 = HIV-1 gp140CH12.0544.2 (HIV-1)

B1: mD1.22 (receptor)
chain: not shown
Kd (HIV-1 gp140MS): 190 pM
Kd (HIV-1 gp140Con-s): 4400 pM
Kd (HIV-1 gp140CH12.0544.2): 170 pM
